In paper PMC11238991:

Experiments:
[1] = target: cleaved-αA (human αA-crystallin made as his-SUMO fusion, tag removed by ulp-1) (human) (UniProt P02489); experiment: SEC; analytical; 2.0 mg/mL of each variant on Superose 6 Increase in 20 mM Tris-HCl pH 7.8, 150 mM NaCl, 0.25 mL/min; molar mass from protein standards, number of subunits predicted from it; three experiments
[2] = target: recombinant human αA-crystallin (αA) (human) (UniProt P02489); experiment: as above

Chain of recombinant human αA-crystallin (αA) (P02489 whole entry): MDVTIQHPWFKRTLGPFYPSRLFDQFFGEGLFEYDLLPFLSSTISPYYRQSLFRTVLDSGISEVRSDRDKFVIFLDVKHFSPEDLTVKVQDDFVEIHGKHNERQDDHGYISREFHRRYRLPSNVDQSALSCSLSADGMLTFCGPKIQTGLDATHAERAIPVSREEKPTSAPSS
Chain of cleaved-αA (human αA-crystallin made as his-SUMO fusion, tag removed by ulp-1) (P02489 whole entry, the tested form may be a part): as the sequence (P02489 whole entry) above

stoichiometry N [1]	stoichiometry N [2]	Substance
13 to 22 subunits	–	cleaved-αA (human αA-crystallin made as his-SUMO fusion, tag removed by ulp-1) (from UniProt P02489 1-173) (natural protein)
–	27 to 32 subunits	recombinant human αA-crystallin (αA) (from UniProt P02489 1-173) (natural protein)
